We go through five molecules from KR20200098329A (dated 2020).

The target of assay [1] is T1, GST-Bag Full (GST와 융합된 전장 BAG2 폴리펩티드) (human, UniProt O95816 1-211).
T1 construct: Expressed in HEK293T cells, detected in lysate at about 50 kDa by immunoblot; not shown: GST tag, about 26 kDa, of the pcDNA3.1+/GST vector (NovoPro Bioscience)
The assay is described as follows: immunoblot on lysate of HEK293T cells with the GST-Bag Full vector, signal at about 50 kDa. In general terms: In western blotting, separated proteins are transferred to a membrane and probed.

The target of assay [2] is T2, 인간 BAG2 단백질 (human, UniProt O95816 2-211, limits assumed).
T2 construct: also called BAG2 폴리펩티드; human BAG2
The assay is described as follows: immunoblot screening of hybridomas.

For assay [3], the target named is T2, 인간 BAG2 단백질. The assay can be described thus: immunoblot on MDA-MB-231 cell lysate.

T2 sequence (O95816 2-211 limits assumed): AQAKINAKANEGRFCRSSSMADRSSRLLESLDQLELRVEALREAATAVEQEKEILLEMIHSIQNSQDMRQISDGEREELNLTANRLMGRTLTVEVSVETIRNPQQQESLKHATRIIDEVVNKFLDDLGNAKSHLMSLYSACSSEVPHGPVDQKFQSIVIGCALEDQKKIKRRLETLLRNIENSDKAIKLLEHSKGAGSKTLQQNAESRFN
T1 sequence (O95816 whole entry): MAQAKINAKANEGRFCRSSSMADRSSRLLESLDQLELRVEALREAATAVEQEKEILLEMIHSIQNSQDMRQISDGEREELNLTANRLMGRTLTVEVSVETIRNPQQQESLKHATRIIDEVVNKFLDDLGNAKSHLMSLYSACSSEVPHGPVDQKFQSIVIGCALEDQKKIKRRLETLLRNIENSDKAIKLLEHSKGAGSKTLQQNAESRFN

B1: 2A11 항체 (antibody, V domains shown)
VH: QVQLQQPGAELVRPGASVTLSCKASGYTFTDYEMHWVKQTPVHGLEWIGIIDPETGGTAYNQKFKGKATLTADKSSSTAYMELRSLTSEDSAVYYCTRGKFYYSGRDYAMDYWGQGTSVTVSS
VL: DVLMTQTPLSLPVSLGDQASISCRSSQSIVHSNGNTYLEWYLQKPGQSPKLLIYKVSNRFSGVPDRFSGSGSGTDFTLKISRVEAEDLGVYFCFQGSQVPPTFGGGTKLEIK
notes: Mouse monoclonal antibody from a hybridoma; also called 항-BAG2 항체 2A11
For B1, the binding result in assay [1] and in assay [2] was “binds” each time.

B2: 8C4 항체 (antibody, V domains shown)
VH: QVQLQQPGAELVRPGASVTLSCKASGYTFTDYEMHWVKQTPVHGLEWIGIIDPETAGTAYNQKFKGKATLTADKSSSTAYMELRSLTSEDSAVYYCTRGKFYYSGRDYAMDYWGQGTSVTVSS
VL: DVLMTQTPLSLPVSLGDQASISCRSSQSIVHSNGNTYLEWYLQKPGQSPKLLFYKVSNRFSGVPDRFSGSGSGTDFTLKISRVEAEDLGVYFCFQGSQVPPTFGGGTKLEIK
notes: Mouse monoclonal antibody from a hybridoma; also called 항-BAG2 항체 8C4
Consider B2, for which the binding result in assay [1] and in assay [3] was “binds” each time.

B3: 4C2 항체 (antibody, V domains shown)
VH: QVQLQQPGAELVRPGASVTLSCKASGYTFTDYEMHWVKQTPVHGLEWIGIIDPETGATAYNQKFKGKATLTADKSSSTAYMELRSLTSEDSAVYYCTRGKFYYSGRDYAMDYWGQGTSVTVSS
VL: DVLMTQTPLSLPVSLGDQASISCRSSQSIVHSNGNTYLEWYLQKPGQSPKLLFYKVSNRFSGVPDRFSGSGSGTDFTLKISRVEAEDLGVYFCFQGSQVPPTFGGGTKLEIK
notes: Mouse monoclonal antibody from a hybridoma; also called 항-BAG2 항체 4C2
On to B3, for which the binding result in assay [1] and in assay [3] was “binds” each time.

B4: 3F12 항체 (antibody, V domains shown)
VH: QVQLQESGPDLVKPSQSLSLTCTVTGYSITSGYSWHWIRQFPGNKLEWMGYIYYRGSTNYNPSLKSRISITRDTSKNQFFLLLKSVTTEDTATYYCAREAYWGQGTLVTVSA
VL: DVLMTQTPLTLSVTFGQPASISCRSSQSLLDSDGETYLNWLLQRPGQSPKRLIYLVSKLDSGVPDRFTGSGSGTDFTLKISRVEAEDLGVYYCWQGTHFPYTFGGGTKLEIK
notes: Mouse monoclonal antibody from a hybridoma; Biotinylated when used as detecting antibody in the sandwich ELISA; also called 항-BAG2 항체 3F12
For B4, the binding result in assay [1] and in assay [2] was “binds” each time.

B5: 3G8 항체 (antibody, V domains shown)
VH: QIQLVQSGPELKKPGETVKISCKASGYSFTKYGMNWVKQAPGKDIKWMGWINTNTGEATYGEEVKGRFAFSLETSASTAYLQINNLKNEDTATYFCARLGLRYLDYWGQGTTLTVSS
VL: DIVMTQSPASLVVSLGQRATISCRASKSVSTSDYSYMHWYQQKPGQPPKVLIYLASNLESGVPARFSGSGSGTDFTLNIHPVEEEDAATYYCQHNRELPPTFGAGTKLELK
notes: Mouse monoclonal antibody from a hybridoma; Biotinylated when used as detecting antibody in the sandwich ELISA; also called 항-BAG2 항체 3G8
In the case of B5, the binding result in assay [1] and in assay [3] was “binds” throughout.
